Assay results as given in paper PMC7156742, “RNA-DNA strand exchange by the Drosophila Polycomb complex PRC2”.

Assays:
PRC1ΔPh = PRC1ΔPh (UniProt P35820;P26017;Q9VB08 1-1601;1-390;1-435); experiment: filter binding; 12 mM Hepes pH 7.9, 0.12 mM EDTA, 120 nM KCl (so in the source); probably mM), 1 mM DTT, 0.01% NP40, 12% glycerol, 0.01 nM probe, 30 min at 30 °C; EMSA plus 50 ng/uL BSA; conditions: protein: recombinant; tags: FLAG; copies: 1;1;1; label: Cy5 or Cy3 on DNA R; 32P at unlabelled 5' ends; blunt
PRC2 = PRC2 (UniProt P42124;Q24338;Q9NJG9;Q24572 1-760;1-425;1-900;1-430); experiment: as above; conditions: protein: recombinant; tags: 6xHis-E(Z); FLAG on Esc or Su(Z)12; copies: 1;1;1;1; label: Cy5 or Cy3 on DNA R; 32P at unlabelled 5' ends; blunt

Chain of PRC1ΔPh (P35820 whole entry, stated change not applied, chain 1 of 3): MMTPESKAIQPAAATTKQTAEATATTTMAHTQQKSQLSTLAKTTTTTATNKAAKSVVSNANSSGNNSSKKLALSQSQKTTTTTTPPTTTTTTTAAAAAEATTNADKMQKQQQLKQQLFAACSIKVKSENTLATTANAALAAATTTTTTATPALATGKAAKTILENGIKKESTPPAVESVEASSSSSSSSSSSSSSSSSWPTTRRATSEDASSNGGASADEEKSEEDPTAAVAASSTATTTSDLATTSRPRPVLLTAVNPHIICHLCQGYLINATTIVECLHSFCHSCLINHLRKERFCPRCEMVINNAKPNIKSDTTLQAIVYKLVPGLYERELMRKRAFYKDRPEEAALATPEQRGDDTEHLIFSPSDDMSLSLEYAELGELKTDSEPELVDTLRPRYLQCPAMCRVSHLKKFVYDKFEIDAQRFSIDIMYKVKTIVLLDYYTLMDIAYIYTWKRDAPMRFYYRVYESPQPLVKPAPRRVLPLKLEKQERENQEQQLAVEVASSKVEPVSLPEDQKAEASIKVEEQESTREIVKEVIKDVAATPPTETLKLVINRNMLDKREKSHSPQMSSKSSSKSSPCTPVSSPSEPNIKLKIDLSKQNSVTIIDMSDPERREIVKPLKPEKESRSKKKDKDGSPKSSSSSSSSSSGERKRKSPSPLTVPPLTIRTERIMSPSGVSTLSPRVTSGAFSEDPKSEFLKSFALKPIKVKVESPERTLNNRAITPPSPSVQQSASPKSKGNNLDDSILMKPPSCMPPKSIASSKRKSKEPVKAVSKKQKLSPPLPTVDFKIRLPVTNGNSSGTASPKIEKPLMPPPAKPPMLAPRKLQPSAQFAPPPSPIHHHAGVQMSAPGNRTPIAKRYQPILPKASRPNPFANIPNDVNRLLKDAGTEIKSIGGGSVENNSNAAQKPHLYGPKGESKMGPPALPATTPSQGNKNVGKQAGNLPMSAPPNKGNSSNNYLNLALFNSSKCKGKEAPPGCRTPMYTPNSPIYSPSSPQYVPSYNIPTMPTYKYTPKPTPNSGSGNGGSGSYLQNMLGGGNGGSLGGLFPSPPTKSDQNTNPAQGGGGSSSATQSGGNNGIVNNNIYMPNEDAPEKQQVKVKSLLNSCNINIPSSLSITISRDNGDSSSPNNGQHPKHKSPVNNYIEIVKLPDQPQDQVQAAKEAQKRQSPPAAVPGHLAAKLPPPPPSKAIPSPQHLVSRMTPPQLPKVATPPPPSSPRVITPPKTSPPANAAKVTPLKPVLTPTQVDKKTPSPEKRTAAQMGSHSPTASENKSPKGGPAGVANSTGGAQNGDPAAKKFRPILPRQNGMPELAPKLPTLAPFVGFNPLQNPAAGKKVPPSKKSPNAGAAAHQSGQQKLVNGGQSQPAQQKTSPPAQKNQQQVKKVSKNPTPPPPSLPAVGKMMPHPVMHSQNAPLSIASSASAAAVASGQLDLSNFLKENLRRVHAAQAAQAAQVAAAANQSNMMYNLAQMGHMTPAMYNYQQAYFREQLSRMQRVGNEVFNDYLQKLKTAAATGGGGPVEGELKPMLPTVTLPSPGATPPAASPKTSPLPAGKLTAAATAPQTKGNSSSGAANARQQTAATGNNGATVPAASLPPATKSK
Chain of PRC1ΔPh (P26017 whole entry, stated change not applied, chain 2 of 3): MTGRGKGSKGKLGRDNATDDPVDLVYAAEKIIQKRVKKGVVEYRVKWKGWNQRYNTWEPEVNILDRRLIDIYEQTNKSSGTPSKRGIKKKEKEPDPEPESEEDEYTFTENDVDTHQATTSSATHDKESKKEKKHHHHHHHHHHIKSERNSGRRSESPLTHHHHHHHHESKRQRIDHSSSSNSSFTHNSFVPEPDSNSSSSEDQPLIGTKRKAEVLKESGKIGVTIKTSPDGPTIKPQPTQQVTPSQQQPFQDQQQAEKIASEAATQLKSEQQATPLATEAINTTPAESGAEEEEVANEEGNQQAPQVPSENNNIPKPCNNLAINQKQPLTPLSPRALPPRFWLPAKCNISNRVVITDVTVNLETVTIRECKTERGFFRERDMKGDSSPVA
Chain of PRC1ΔPh (Q9VB08 whole entry, stated change not applied, chain 3 of 3): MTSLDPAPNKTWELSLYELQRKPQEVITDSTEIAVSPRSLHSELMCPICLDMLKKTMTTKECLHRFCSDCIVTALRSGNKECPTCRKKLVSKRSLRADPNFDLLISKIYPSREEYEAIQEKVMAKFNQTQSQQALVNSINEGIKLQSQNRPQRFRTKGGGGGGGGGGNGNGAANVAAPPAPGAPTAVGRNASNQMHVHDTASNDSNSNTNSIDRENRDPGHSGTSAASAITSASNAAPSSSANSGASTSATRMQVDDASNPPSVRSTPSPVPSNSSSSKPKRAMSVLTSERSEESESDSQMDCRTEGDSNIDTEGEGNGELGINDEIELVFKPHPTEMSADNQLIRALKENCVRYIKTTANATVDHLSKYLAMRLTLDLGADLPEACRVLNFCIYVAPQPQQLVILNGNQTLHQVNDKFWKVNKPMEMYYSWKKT

B1: vg PRE dsDNA (dsDNA)
DNA 1: CGGGTTGTCAAGAATTTTAACGGCCATTTCTGTGAGTGTGTGCGAGCTGCCAAGTGTGTGTGAGTGTGTTTGTGACAAACGCAAGCTCATGTAAGTGCTC
DNA 2: GAGCACTTACATGAGCTTGCGTTTGTCACAAACACACTCACACACACTTGGCAGCTCGCACACACTCACAGAAATGGCCGTTAAAATTCTTGACAACCCG
Kd (PRC1ΔPh): 0.164 nM
Kd (PRC2): 6.44 nM
